In patent US20240409645A1 (published 2024):

T1: human IL-2 receptor IL-2Rα/IL-2Rβ/γc on HEK-Blue IL-2 cells (UniProt P01589 22-272; P14784 27-551; P31785 23-369)
T1 chain 1: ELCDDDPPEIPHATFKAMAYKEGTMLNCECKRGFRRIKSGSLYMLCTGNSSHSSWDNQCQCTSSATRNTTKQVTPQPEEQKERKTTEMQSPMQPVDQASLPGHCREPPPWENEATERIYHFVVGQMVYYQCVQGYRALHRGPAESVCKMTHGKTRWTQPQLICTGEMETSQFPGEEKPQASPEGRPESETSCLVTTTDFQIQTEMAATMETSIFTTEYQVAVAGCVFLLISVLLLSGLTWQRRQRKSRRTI
T1 chain 2: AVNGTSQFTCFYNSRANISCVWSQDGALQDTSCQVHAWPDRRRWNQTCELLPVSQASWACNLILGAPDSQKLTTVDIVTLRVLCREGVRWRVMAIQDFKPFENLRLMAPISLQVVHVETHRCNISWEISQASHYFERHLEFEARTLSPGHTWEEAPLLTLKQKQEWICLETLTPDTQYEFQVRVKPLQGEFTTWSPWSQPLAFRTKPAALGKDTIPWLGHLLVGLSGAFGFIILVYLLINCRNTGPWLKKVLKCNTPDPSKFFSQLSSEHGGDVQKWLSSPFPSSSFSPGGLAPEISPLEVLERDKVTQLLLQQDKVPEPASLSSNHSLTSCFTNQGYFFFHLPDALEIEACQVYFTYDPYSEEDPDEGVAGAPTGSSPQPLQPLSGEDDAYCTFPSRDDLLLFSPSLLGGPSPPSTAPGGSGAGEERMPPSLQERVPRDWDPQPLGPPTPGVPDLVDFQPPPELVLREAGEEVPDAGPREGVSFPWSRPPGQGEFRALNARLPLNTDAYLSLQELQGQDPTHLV
T1 chain 3: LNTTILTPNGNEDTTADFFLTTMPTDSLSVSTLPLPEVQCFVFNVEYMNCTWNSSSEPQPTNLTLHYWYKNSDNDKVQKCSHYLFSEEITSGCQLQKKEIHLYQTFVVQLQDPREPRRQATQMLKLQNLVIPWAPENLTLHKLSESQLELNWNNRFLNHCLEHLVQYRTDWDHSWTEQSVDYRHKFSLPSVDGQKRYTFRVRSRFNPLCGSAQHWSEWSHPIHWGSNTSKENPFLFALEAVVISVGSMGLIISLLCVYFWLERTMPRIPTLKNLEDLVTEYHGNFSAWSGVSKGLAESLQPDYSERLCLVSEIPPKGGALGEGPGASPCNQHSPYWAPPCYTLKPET


Biological target: T1, human IL-2 receptor IL-2Rα/IL-2Rβ/γc on …
Experiment: FACS cell binding; avid

| Binder | EC50 [nM] |
| --- | --- |
| BsVHH-5 (36x16) (antibody) QVQLVESGGGLVQAGGSLRLSCAASGRTLSRYAMGWFRQAPGSEREFVAASSWGGDTFYADSVEGRFTFSRDNAKNAVYLQMNSLQPEDTAAYYCAAAPTSFPTTAYSSSNSYAYWGQGTQVTVSSGGGGSGGGGSGGGGSGSEVQLVESGGGLVQAGGSLRLSCAASGRAIENYPVGWFRQAPGKEREFVAAITWISGSTLYADSVKGRFTISRDNAKNTVYLQMSSLKPEDTALYYCAAALKTITRGQNDYSYWGQGTQVTVSSGGGGSGGGGSGGGGSTVSSDKTHTCPPCPAPEAAGGPSVFLFPPKPKDTLMISRTPEVTCVVVDVSHEDPEVKFNWYVDGVEVHNAKTKPREEQYNSTYRVVSVLTVLHQDWLNGKEYKCKVSNKALGAPIEKTISKAKGQPREPQVYTLPPSRDELTKNQVSLTCLVKGFYPSDIAVEWESNGQPENNYKTTPPVLDSDGSFLLYSKLTVDKSRWQQGNVFSCSVMHEALHNHYTQKSLSLSPGK | 121 |
| BsVHH-3 (32x16) (antibody) QVQLVESGGGLVQAGGSLRLSCAASGRTFGSTAVGWFRQVPGKEREFVSAINRSGSATTYADSVKGRFTISRDNAKNTVYLQMNSLTPEDTGVYYCAADSLPYGRPYYFQRSAGEYDYWGQGTQVTVSSGGGGSGGGGSGGGGSGSEVQLVESGGGLVQAGGSLRLSCAASGRAIENYPVGWFRQAPGKEREFVAAITWISGSTLYADSVKGRFTISRDNAKNTVYLQMSSLKPEDTALYYCAAALKTITRGQNDYSYWGQGTQVTVSSGGGGSGGGGSGGGGSTVSSDKTHTCPPCPAPEAAGGPSVFLFPPKPKDTLMISRTPEVTCVVVDVSHEDPEVKFNWYVDGVEVHNAKTKPREEQYNSTYRVVSVLTVLHQDWLNGKEYKCKVSNKALGAPIEKTISKAKGQPREPQVYTLPPSRDELTKNQVSLTCLVKGFYPSDIAVEWESNGQPENNYKTTPPVLDSDGSFLLYSKLTVDKSRWQQGNVFSCSVMHEALHNHYTQKSLSLSPGK | 3.7 |
| BsVHH-13 (32x19) (antibody) QVQLVESGGGLVQAGGSLRLSCAASGRTFGSTAVGWFRQVPGKEREFVSAINRSGSATTYADSVKGRFTISRDNAKNTVYLQMNSLTPEDTGVYYCAADSLPYGRPYYFQRSAGEYDYWGQGTQVTVSSGGGGSGGGGSGGGGSGSEVQLVESGGGLVQTGGSLRLSCAASGGTFSRDAMAWFRQVPGKEREFVALISWSGATTNYADSVKGRFAISRDNGKNTVYLQMNRLKPADTAIYYCAADRRPMGSRSYFEPTEYDDWGQGTQVTVSSGGGGSGGGGSGGGGSTVSSDKTHTCPPCPAPEAAGGPSVFLFPPKPKDTLMISRTPEVTCVVVDVSHEDPEVKFNWYVDGVEVHNAKTKPREEQYNSTYRVVSVLTVLHQDWLNGKEYKCKVSNKALGAPIEKTISKAKGQPREPQVYTLPPSRDELTKNQVSLTCLVKGFYPSDIAVEWESNGQPENNYKTTPPVLDSDGSFLLYSKLTVDKSRWQQGNVFSCSVMHEALHNHYTQKSLSLSPGK | 41.8 |
| BsVHH-11 (27x19) (antibody) QVQLVESGGGLVQAGGSLTLSCAAPGRTFGTDVVGWFRQAPGKEREFVASISRSGDGIYYDDSVKGRFTISRNNAWNTVNLQMNSLKVEDTAVYYCAAGDGWSTYDYWGQGTQVTVSSGGGGSGGGGSGGGGSGSEVQLVESGGGLVQTGGSLRLSCAASGGTFSRDAMAWFRQVPGKEREFVALISWSGATTNYADSVKGRFAISRDNGKNTVYLQMNRLKPADTAIYYCAADRRPMGSRSYFEPTEYDDWGQGTQVTVSSGGGGSGGGGSGGGGSTVSSDKTHTCPPCPAPEAAGGPSVFLFPPKPKDTLMISRTPEVTCVVVDVSHEDPEVKFNWYVDGVEVHNAKTKPREEQYNSTYRVVSVLTVLHQDWLNGKEYKCKVSNKALGAPIEKTISKAKGQPREPQVYTLPPSRDELTKNQVSLTCLVKGFYPSDIAVEWESNGQPENNYKTTPPVLDSDGSFLLYSKLTVDKSRWQQGNVFSCSVMHEALHNHYTQKSLSLSPGK | 38.1 |
| BsVHH-10 (36x18) (antibody) QVQLVESGGGLVQAGGSLRLSCAASGRTLSRYAMGWFRQAPGSEREFVAASSWGGDTFYADSVEGRFTFSRDNAKNAVYLQMNSLQPEDTAAYYCAAAPTSFPTTAYSSSNSYAYWGQGTQVTVSSGGGGSGGGGSGGGGSGSQVQLVESGGGLVQPGGSLRLSCAISGGTLDSYGIGWVRQAPGKQREGVSCMSRSDDRTYYADSVKGRFTISKDSAKNTVYLQMTSLKPEDTAVYYCAAVDAYGCSLVQPTTYDFWGLGTQVTVSSGGGGSGGGGSGGGGSTVSSDKTHTCPPCPAPEAAGGPSVFLFPPKPKDTLMISRTPEVTCVVVDVSHEDPEVKFNWYVDGVEVHNAKTKPREEQYNSTYRVVSVLTVLHQDWLNGKEYKCKVSNKALGAPIEKTISKAKGQPREPQVYTLPPSRDELTKNQVSLTCLVKGFYPSDIAVEWESNGQPENNYKTTPPVLDSDGSFLLYSKLTVDKSRWQQGNVFSCSVMHEALHNHYTQKSLSLSPGK | 4.2 |
| BsVHH-4 (35x16) (antibody) QVQLQESGGGLVQGGGSLRLSCAASGGIFSSYAMGWFRQAPGKEREFVAAISRSGRSTNYADSVKGRFTISRDNAKSTVYLQMNSLKPEETAVYYCAAGRYYNSAYDPSPGDFGSWGHGTQVTVSSGGGGSGGGGSGGGGSGSEVQLVESGGGLVQAGGSLRLSCAASGRAIENYPVGWFRQAPGKEREFVAAITWISGSTLYADSVKGRFTISRDNAKNTVYLQMSSLKPEDTALYYCAAALKTITRGQNDYSYWGQGTQVTVSSGGGGSGGGGSGGGGSTVSSDKTHTCPPCPAPEAAGGPSVFLFPPKPKDTLMISRTPEVTCVVVDVSHEDPEVKFNWYVDGVEVHNAKTKPREEQYNSTYRVVSVLTVLHQDWLNGKEYKCKVSNKALGAPIEKTISKAKGQPREPQVYTLPPSRDELTKNQVSLTCLVKGFYPSDIAVEWESNGQPENNYKTTPPVLDSDGSFLLYSKLTVDKSRWQQGNVFSCSVMHEALHNHYTQKSLSLSPGK | 3.5 |
| BsVHH-16 (27x22) (antibody) QVQLVESGGGLVQAGGSLTLSCAAPGRTFGTDVVGWFRQAPGKEREFVASISRSGDGIYYDDSVKGRFTISRNNAWNTVNLQMNSLKVEDTAVYYCAAGDGWSTYDYWGQGTQVTVSSGGGGSGGGGSGGGGSGSEVQLVESGGGLVQAGGSLRLSCAASGSIFSINAMAWFRQVPGMERELVAAISRDGGASVYRDSVKGRFTISRDNSKNTVYLQMNTLKPEDTAIYVCAATRAIGWTARWITTDFDFWGQGTQVTVSSGGGGSGGGGSGGGGSTVSSDKTHTCPPCPAPEAAGGPSVFLFPPKPKDTLMISRTPEVTCVVVDVSHEDPEVKFNWYVDGVEVHNAKTKPREEQYNSTYRVVSVLTVLHQDWLNGKEYKCKVSNKALGAPIEKTISKAKGQPREPQVYTLPPSRDELTKNQVSLTCLVKGFYPSDIAVEWESNGQPENNYKTTPPVLDSDGSFLLYSKLTVDKSRWQQGNVFSCSVMHEALHNHYTQKSLSLSPGK | 659 |
| BsVHH-6 (27x18) (antibody) QVQLVESGGGLVQAGGSLTLSCAAPGRTFGTDVVGWFRQAPGKEREFVASISRSGDGIYYDDSVKGRFTISRNNAWNTVNLQMNSLKVEDTAVYYCAAGDGWSTYDYWGQGTQVTVSSGGGGSGGGGSGGGGSGSQVQLVESGGGLVQPGGSLRLSCAISGGTLDSYGIGWVRQAPGKQREGVSCMSRSDDRTYYADSVKGRFTISKDSAKNTVYLQMTSLKPEDTAVYYCAAVDAYGCSLVQPTTYDFWGLGTQVTVSSGGGGSGGGGSGGGGSTVSSDKTHTCPPCPAPEAAGGPSVFLFPPKPKDTLMISRTPEVTCVVVDVSHEDPEVKFNWYVDGVEVHNAKTKPREEQYNSTYRVVSVLTVLHQDWLNGKEYKCKVSNKALGAPIEKTISKAKGQPREPQVYTLPPSRDELTKNQVSLTCLVKGFYPSDIAVEWESNGQPENNYKTTPPVLDSDGSFLLYSKLTVDKSRWQQGNVFSCSVMHEALHNHYTQKSLSLSPGK | 172 |
